Measured values published in patent publication US20210284725A1 (Genentech, published 2021).
Substitutions are numbered along the chain they refer to.

B1: 1E1v8 (human IgG1) (antibody, V domains shown)
VH: EVQLVESGGGLVQPGGSLRLSCAASGFTFNNYWMTWIRQAPGKGLEWVASITYTGGGTYYPDSVKGRFTISRDDAKSSLYLQMNSLRAEDTAVYYCTRANYYYNTYGGFPYWGQGTLVTVSS
VL: DIQMTQSPSSLSASVGDRVTITCLASEGFSNDLAWYQQKPGKSPKLLIYAASRLQDGVPSRFSGSGSGTDFTLTISSLQPEDFATYFCQQGSKYPLTFGGGTKVEIK
B2: 1E1v9 (antibody, human IgG1, V domains shown)
VH: B1 VH with V48I
VL: B1 VL with S43A, L46S
notes: Humanized 1E1 variant, human IgG1 backbone, expressed in Expi293F
B3: 1E1v4 (antibody, human IgG1, V domains shown)
VH: B1 VH with V48I
VL: B1 VL
notes: as for B2
B4: 1E1v10 (antibody, human IgG1, V domains shown)
VH: B1 VH with I37V
VL: B1 VL with S43A, L46S
notes: as for B2
B5: 1E1v7 (antibody, human IgG1, V domains shown)
VH: B1 VH with I37V, D74N
VL: B1 VL
notes: as for B2
B6: 1E1v17 (antibody, human IgG1, V domains shown)
VH: B1 VH with I37V, D74N
VL: B1 VL with Y36F, S43A, L46S
notes: as for B2
B7: 1E1v23 (antibody, human IgG1, V domains shown)
VH: B1 VH with I37V, V48I
VL: B1 VL with S43A, L46S, F87Y
notes: as for B2
B8: 1E1v3 (antibody, human IgG1, V domains shown)
VH: B1 VH with I37V, D74N, S77N
VL: B1 VL
notes: as for B2
B9: 1E1v11 (antibody, human IgG1, V domains shown)
VH: B1 VH with I37V, S77N
VL: B1 VL with S43A, L46S
notes: as for B2
B10: 1E1v6 (antibody, human IgG1, V domains shown)
VH: B1 VH with I37V, S77N
VL: B1 VL
notes: as for B2
B11: 1E1v14 (antibody, human IgG1, V domains shown)
VH: B1 VH with V48I
VL: B1 VL with Y36F, S43A, L46S
notes: as for B2
B12: 1E1v22 (antibody, human IgG1, V domains shown)
VH: B1 VH with I37V, D74N
VL: B1 VL with S43A, L46S, F87Y
notes: as for B2
B13: 1E1v1 (antibody, human IgG1, V domains shown)
VH: B1 VH with I37V, D74N, S77N
VL: B1 VL with Y36F, S43A, L46S, F87Y
notes: as for B2
B14: 1E1v18 (antibody, human IgG1, V domains shown)
VH: B1 VH with I37V, V48I
VL: B1 VL with Y36F, S43A, L46S
notes: as for B2
B15: 1E1v15 (antibody, human IgG1, V domains shown)
VH: B1 VH with I37V
VL: B1 VL with Y36F, S43A, L46S
notes: as for B2
B16: 1E1v5 (antibody, human IgG1, V domains shown)
VH: B1 VH with I37V
VL: B1 VL
notes: as for B2
B17: 1E1v16 (antibody, human IgG1, V domains shown)
VH: B1 VH with I37V, S77N
VL: B1 VL with Y36F, S43A, L46S
notes: as for B2
B18: 1E1v2 (antibody, human IgG1, V domains shown)
VH: B1 VH with V48I
VL: B1 VL with Y36F, S43A, L46S, F87Y
notes: as for B2

Each binder was assayed against T1, human IL-33 (human, UniProt O95760 112-270, limits assumed) (assay: cell-based or functional assay).
T1 sequence (looked up): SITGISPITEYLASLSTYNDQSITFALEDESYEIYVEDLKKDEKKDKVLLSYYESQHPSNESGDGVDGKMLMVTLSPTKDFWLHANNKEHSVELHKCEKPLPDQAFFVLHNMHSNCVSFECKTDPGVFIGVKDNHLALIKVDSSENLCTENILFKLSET

Binder | IC50 (M), IL-33 neutralization activity, HEK-BLUE IL-33 cells, human IL-33 at 160 pM
B1 | 3.11e-11 M
B2 | 3.05e-11 M
B3 | 3.11e-11 M

What follows are binders tested against T2, human IL-33 (His-tagged) (human, UniProt O95760 112-270, limits assumed) (assay: SPR Biacore T200, IgG captured on protein A chip, His-tagged human IL-33 analyte, 25 C, n=2; column head prints 'KD (nM)' but the E-notation cells are in M, unit corrected to M).
T2 construct: not shown: His tag
T2 sequence (looked up): T1 sequence (looked up)
Protocol: A protein A sensorchip (GE Healthcare) was used following manufacturer provided protocols to capture humanized anti-IL-33 antibodies using a BIACORE® T200 instrument (GE). Antibody binding was measured to human IL-33 (His-tagged) using multi-cycle kinetics. Sensorgrams for binding of IL-33 were recorded using an injection time of 2 min with a flow rate of 30 μl/min, at a temperature of 25° C., and with a running buffer of 10 mM HEPES, pH 7.4, 150 mM NaCl, 3 mM EDTA, and 0.005% TWEEN620. After injection, disassociation of IL-33 from the antibody was monitored for 10 min in running buffer. The surface was regenerated between binding cycles with a 30 μl injection of 10 mM Glycine HCl pH 1.5. After subtraction of a blank which contained running buffer only, sensorgrams observed for cytokine binding to anti-IL-33 antibody were analyzed using a 1:1 Langmuir binding model with software supplied by the manufacturer to calculate the kinetics and binding constants.

Binder | Kd
B4 | 0.121 nM
B5 | 0.144 nM
B1 | 0.118 nM
B6 | 0.285 nM
B2 | 0.129 nM
B7 | 0.151 nM
B8 | 0.149 nM
B9 | 0.123 nM
B10 | 0.132 nM
B11 | 0.163 nM
B12 | 0.146 nM
B13 | 0.295 nM
B14 | 0.172 nM
B15 | 0.195 nM
B3 | 0.154 nM
B16 | 0.144 nM
B17 | 0.179 nM
B18 | 0.203 nM
